This is an account of results in article PMC5014685 (Structure (London, England : 1993), 2016).

B1: GRD2 6xAla mutant (N924A, N928A, Q929A, R930A, E931A, S1204A) (domain or fragment)
chain: GAMASKERRKTLETYQQLFYLLQTNPLYLAKLIFQMPQNKSTKFMDTVIFTLYAYASAAAAEYLLLKLFKTALEEEIKSKVDQVQDIVTGNPTVIKMVVSFNRGARGQNTLRQLLAPVVKEIIDDKSLIINTNPVEVYKAWVNQLETQTGEASKLPYDVTTEQALTYPEVKNKLEASIENLRRVTDKVLNSIISSLDLLPYGLRYIAKVLKNSIHEKFPDATEDELLKIVGNLLYYRYMNPAIVAPDGFDIIDMTAGGQINSDQRRNLGSVAKVLQHAASNKLFEGENEHLSSMNNYLSETYQEFRKYFKEACNVPEPEEKFNMDKYTDLVTVAKPVIYISIEEIISTHSLLLEHQDAIAPEKNDLLSELLGSLGEVPTVESFLGEG
B2: human hydrolase deficient (Q61L) Cdc42 (residues 1-177), GTP-loaded (domain or fragment)
chain: not shown
B3: GRD1 6xAla mutant (N1011A, N1015A, Q1016A, R1017A, E1018A, T1291A) (domain or fragment)
chain: GAMASKEKREKLEAYQHLFYLLQTNPTYLAKLIFQMPQNKSTKFMDSVIFTLYAYASAAAAEYLLLRLFKTALQEEIKSKVDQIQEIVTGNPTVIKMVVSFNRGARGQNALRQILAPVVKEIMDDKSLNIKTDPVDIYKSWVNQMESQTGEASKLPYDVTPEQALAHEEVKTRLDSSIRNMRAVTDKFLSAIVSSVDKIPYGMRFIAKVLKDSLHEKFPDAGEDELLKIIGNLLYYRYMNPAIVAPDAFDIIDLSAGGQLTTDQRRNLGSIAKMLQHAASNKMFLGDNAHLSIINEYLSQSYQKFRRFFQTACDVPELQDKFNVDEYSDLVTLAKPVIYISIGEIINTHTLLLDHQDAIAPEHNDPIHELLDDLGEVPTIESLIGESS
B4: IQGAP2 GTPase-activating protein (GAP)-related domain (residues 875-1257) (domain or fragment, human)
chain: GAMSKERRKTLETYQQLFYLLQTNPLYLAKLIFQMPQNKSTKFMDTVIFTLYNYASNQREEYLLLKLFKTALEEEIKSKVDQVQDIVTGNPTVIKMVVSFNRGARGQNTLRQLLAPVVKEIIDDKSLIINTNPVEVYKAWVNQLETQTGEASKLPYDVTTEQALTYPEVKNKLEASIENLRRVTDKVLNSIISSLDLLPYGLRYIAKVLKNSIHEKFPDATEDELLKIVGNLLYYRYMNPAIVAPDGFDIIDMTAGGQINSDQRRNLGSVAKVLQHAASNKLFEGENEHLSSMNNYLSETYQEFRKYFKEACNVPEPEEKFNMDKYTDLVTVSKPVIYISIEEIISTHSLLLEHQDAIAPEKNDLLSELLGSLGEVPTVESFLGEG
B5: IQGAP1 GTPase-activating protein (GAP)-related domain (residues 962-1345) (domain or fragment)
chain: GAMSKEKREKLEAYQHLFYLLQTNPTYLAKLIFQMPQNKSTKFMDSVIFTLYNYASNQREEYLLLRLFKTALQEEIKSKVDQIQEIVTGNPTVIKMVVSFNRGARGQNALRQILAPVVKEIMDDKSLNIKTDPVDIYKSWVNQMESQTGEASKLPYDVTPEQALAHEEVKTRLDSSIRNMRAVTDKFLSAIVSSVDKIPYGMRFIAKVLKDSLHEKFPDAGEDELLKIIGNLLYYRYMNPAIVAPDAFDIIDLSAGGQLTTDQRRNLGSIAKMLQHAASNKMFLGDNAHLSIINEYLSQSYQKFRRFFQTACDVPELQDKFNVDEYSDLVTLTKPVIYISIGEIINTHTLLLDHQDAIAPEHNDPIHELLDDLGEVPTIESLIGESS

Series [1] addresses human hydrolase deficient (Q61L) Rac1 (residues 1-177), GTP-bound (human, UniProt P63000 1-177, Q61L). Kind of series: ITC. Background: ITC needs no label: the signal is the heat of the interaction.
Series [2] has as its target B5. Kind of series: ITC.
The target of series [3] is B4. Kind of series: ITC.
Series [4] addresses B4. The experiment in a line: crystal structure.
The series “crystal structure” deals with the molecule itself. The experiment in a line: crystal structure.

In the case of B1, the binding result in series [1] was “binds”.

In general, stoichiometry N refers to the number of molecules, sites or subunits per partner or assembly. On to B2, for which the “stoichiometry N” value in series [2] is 2 Cdc42 per GRD; in series [3], 2 Cdc42 per GRD; in series [4] it was 2 Cdc42 per GRD2.

Regarding B3, the binding result in series [1] is “binds”.

On to B4, for which, in series [1], the binding result is given as “binds”. In addition, in “crystal structure”, the “stoichiometry N” value came to 2.

On to B5, for which, in series [1], the binding result is “binds”.
